One molecule from patent publication US20230250148A1 (published 2023) can be followed below.

The target of experiment [1] is T1, human insulin receptor (IR) on human IM-9 cells (human, UniProt P06213 28-1382).
T1 construct: whole, on cells; also called human IR
In words: competition with biotinylated RHI on IM-9 cells, flow cytometry, 4 C. Here is the method:
40 µL of an IM-9 cell suspension (8×10⁶ cells/mL) was then added to each well by multichannel pipette, mixed again gently and incubated on ice for 30 min to allow competitive binding on the IR on IM-9 cells. Cells were then washed twice with 275µL of ice-cold FACS wash buffer (HBSS/2mM EDTA/0.1% Na-azide + 0.5% horse serum) by centrifuging the V-bottom plate at 3000 rpm for 3 min and aspirating the supernatant. Cells were then resuspended in 40µL of FACS staining medium containing 1:100 diluted Streptavidin-PE (Life Technologies) for 20 min on ice. Cells were then washed once with 275 µL of ice-cold FACS buffer and finally fixed with 3% paraformaldehyde for 10 min at room temp. Cells were then washed once with 275 µL of ice-cold FACS buffer and resuspended in 250µl of FACS buffer for analysis.
Next, the insulin-Fc fusion protein of SEQ ID NO: 76 was evaluated for the potential for in vivo bioactivity.

For experiment [2], the target named is T2, biotinylated recombinant human Fc(gamma)RI (human, UniProt P12314 16-288, biotinylated, site not stated).
T2 construct: Bought reagent; construct not described; also called rhFc(gamma)RI; Fc(gamma) receptor I
As to the kind of experiment: ELISA, fusion protein coated, biotinylated rhFc(gamma)RI at 3000 ng/mL. Here is the method: The binding of insulin-Fc fusion proteins to the Fc(gamma)RI at pH 7.4 was conducted using an ELISA assay as follows using human Fc(gamma)RI (i.e., rhFc(gamma)RI). Insulin-Fc fusion proteins were diluted to 10 µg/mL in sodium bicarbonate buffer at pH 9.6 and coated on Maxisorp (Nunc) microtiter plates overnight at 4° C., after which the microplate strips were washed 5 times with PBST (PBS/0.05% Tween-20) buffer and blocked with Superblock blocking reagent (ThermoFisher). […] The plate was read in an ELISA plate reader at 450 nm, and the OD450 values (proportional to the binding of rhFc(gamma)RI to insulin-Fc protein) were plotted against log concentrations of rhFc(gamma)RI added to each well to generate binding curves using GraphPad Prism software. […] In order to compare differences across multiple insulin-Fc fusion proteins run at different times, the human Fc(gamma)RI assay OD450 Ratio was calculated as the OD450 value of a test insulin-Fc fusion protein compound obtained at a biotinylated-Fc(gamma)RI concentration of 3000 ng/mL, divided by the OD450 value of a reference insulin-Fc fusion protein of SEQ ID NO: 76 obtained at a biotinylated-Fc(gamma)RI concentration of 3000 ng/mL.
A general note: ELISA stands for enzyme-linked immunosorbent assay.

Experiment [3] concerns the target T3, biotinylated human complement component C1q (human, UniProt P02745 23-245; P02746 28-253; P02747 29-245, biotinylated, site not stated).
T3 construct: also called biotinylated-C1q
As to the kind of experiment: ELISA, fusion protein coated, biotinylated human C1q at 1000 ng/mL. The protocol:
The binding of insulin-Fc fusion proteins to complement component C1q at pH 7.4 was conducted using an ELISA assay as follows using human complement component C1q. Insulin-Fc fusion proteins were diluted to 10 µg/mL in sodium bicarbonate buffer at pH 9.6 and coated on Maxisorp (Nunc) microtiter plates overnight at 4° C., after which the microplate strips were washed 5 times with PBST (PBS/0.05% Tween-20) buffer and blocked with Superblock blocking reagent (ThermoFisher). […] The plate absorbance was read in an ELISA plate reader at 450 nm (OD450), and the OD450 values (proportional to the binding of complement component C1q to insulin-Fc protein) were plotted against log concentrations of complement component C1q added to each well to generate binding curves using GraphPad Prism software. […] In order to further compare differences across multiple insulin-Fc fusion proteins run at different times, the human C1q assay OD450 Ratio was calculated as the OD450 of a test insulin-Fc fusion protein compound obtained at a biotinylated-C1q concentration of 1000 ng/mL, divided by the OD450 of a reference insulin-Fc fusion protein of SEQ ID NO: 76 obtained at a biotinylated-C1q concentration of 1000 ng/mL.

The next experiment has as its target T4, biotinylated human FcRn (human, UniProt P55899 24-297; P61769 21-119, limits assumed, biotinylated, site not stated).
T4 construct: Bought reagent (Immunitrack); composition not described; also called human FcRn receptor
In words: ELISA pH 5.5, fusion protein coated, biotinylated human FcRn titrated. The protocol: Insulin-Fc fusion proteins comprising Fc fragments were diluted to 10 µg/mL in sodium bicarbonate pH 9.6 buffer and coated in duplicate on Maxisorb ELISA plate strips for 1-2 hours at RT. The strips were then washed 5 times with PBST (PBS/0.1% Tween-20) buffer and blocked with Superblock blocking reagent (ThermoFisher). Strips for FcRn binding were then washed again 3 times with pH 5.5 MES/NaCl/Tween (50 mM MES/150mM NaCl/0.1% Tween-20) buffer before addition of the FcRn reagent (biotinylated human FcRn; Immunitrack). Serial dilutions (1:3X dilutions) of biotinylated FcRn reagent were prepared in pH 5.5 MES/NaCl/Tween/5%Superblock buffer at concentrations from 6000 ng/mL to 8.23 ng/mL and loaded at 100 µL/well using a multichannel pipettor onto the strips coated with the insulin-Fc fusion protein compounds. The assay plate was then incubated for 1.5 hours at room temperature. FcRn binding strips were washed 4 times with pH 5.5 MES/NaCl/Tween buffer and then loaded with 100 µl/well streptavidin-HRP diluted 1:10000 in pH 5.5 MES/NaCl /5%Superblock buffer. After incubating for 45 minutes, strips were washed again 5 times with pH 5.5 MES/NaCl/Tween buffer. […] The plate was read in an ELISA plate reader at a wavelength of 450 nm. […] EC50 values for each binding curve were calculated to compare between different compounds.

B1: insulin-Fc fusion protein of SEQ ID NO: 75 (Fc fusion)
chain: FVNQHLCGSHLVEALELVCGERGFHYGGGGGGSGGGGGIVEQCCTSTCSLDQLENYCGGGGGQGGGGQGGGGQGGGGGECPPCPAPPVAGPSVFLFPPKPKDTLMISRTPEVTCVVVDVSHEDPEVQFNWYVDGVEVHNAKTKPREEQFNSTFRVVSVLTVVHQDWLNGKEYKCKVSNKGLPAPIEKTISKTKGQPREPQVYTLPPSREEMTKNQVSLTCLVKGFYPSDIAVEWESNGQPENNYKTTPPMLDSDGSFFLYSKLTVDKSRWQQGNVFSCSVMHEALHNHYTQKSLSLSPG
In experiment [1], B1 registered an IC50 of 1730 nM. For the same molecule, the “OD450 Ratio (reference SEQ ID NO: 76)” value was 0.045 in experiment [2] and 0.309 in experiment [3]. For the same molecule, the half-maximal effective concentration (EC50) with biotinylated human FcRn was 0.462 µg/mL.

One may read the IC50 as the concentration that gives 50% inhibition. A higher IC50 goes with weaker potency. For orientation: EC50 means the concentration needed to bring the measured effect to its halfway point. A low value points to greater potency.
